Results: patent US20100240033A1 (INSTITUT NATIONAL DE LA SANTE ET DE LA RECHERCHE MEDICAL …, published 2010)
Changes are numbered by the printed parent chain.

Experiments:
[1] = molecular target: T1, wild-type human prolactin receptor (PRLR), isoform 1 (human, UniProt P16471 25-622); assay: cell-based or functional assay
T1 sequence: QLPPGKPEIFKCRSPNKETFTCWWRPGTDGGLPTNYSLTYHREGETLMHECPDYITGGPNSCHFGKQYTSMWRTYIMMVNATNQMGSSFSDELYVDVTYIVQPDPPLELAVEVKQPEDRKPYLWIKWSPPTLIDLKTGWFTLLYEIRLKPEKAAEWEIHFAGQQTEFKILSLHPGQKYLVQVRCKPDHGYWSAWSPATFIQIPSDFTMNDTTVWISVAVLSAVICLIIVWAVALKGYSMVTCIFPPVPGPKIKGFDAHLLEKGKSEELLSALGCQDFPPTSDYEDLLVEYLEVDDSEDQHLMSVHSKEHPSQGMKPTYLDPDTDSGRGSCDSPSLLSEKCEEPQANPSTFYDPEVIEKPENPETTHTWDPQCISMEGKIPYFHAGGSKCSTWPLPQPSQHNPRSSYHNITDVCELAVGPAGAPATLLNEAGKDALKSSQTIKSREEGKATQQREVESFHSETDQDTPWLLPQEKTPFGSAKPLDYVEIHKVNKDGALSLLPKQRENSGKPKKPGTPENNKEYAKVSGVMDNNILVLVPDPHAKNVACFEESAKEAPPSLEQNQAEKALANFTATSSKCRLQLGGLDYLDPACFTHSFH

[2] = molecular target: T2, human prolactin receptor mutant I76V (human, UniProt P16471 25-622); assay: cell-based or functional assay
T2 sequence: T1 sequence with I76V

[3] = molecular target: T1, wild-type human prolactin receptor …; assay: radioligand competition ([125I]-hPRL vs unlabeled hPRL) on homogenates of stably transfected HEK 293 cells, Scatchard analysis
Procedure: (§1) Binding affinities of mutated PRLR for hPRL were determined using cell homogenates of stably transfected HEK 293, following a procedure previously described (KINET et al., J Biol Chem, 274, 26033-26043, 1999). Briefly, recombinant hPRL, produced in bacteria E. coli using the pT7L expression vector, and purified as described previously (PARIS et al., Biotechnol Appl Biochem, 12, 436-449, 1990), was iodinated using the Iodogen method, and its specific activity was in the range of 4-5 μCi/μg. Binding assays were performed overnight at room temperature using 150-300 μg cell homogenate protein in the presence of 20,000-30,000 cpm [¹²⁵I]-hPRL and increasing concentrations of unlabeled hPRL (competitor). Scatchard analysis was performed to determine the binding affinity of mutated PRLR and the number of PRLR per cell in stable clones or populations.

[4] = molecular target: T2, human prolactin receptor mutant I76V; assay: as above
Procedure: as §1

B1: recombinant human prolactin (hPRL) (ligand, UniProt P01236 29-227, looked up)
chain: LPICPGGAARCQVTLRDLFDRAVVLSHYIHNLSSEMFSEFDKRYTHGRGFITKAINSCHTSSLATPEDKEQAQQMNQKDFLSLIVSILRSWNEPLYHLVTEVRGMQEAPEAILSKAVEIEEQTKRLLEGMELIVSQVHPETKENEIYPVWSGLPSLQMADEESRLSAYYNLLHCLRRDSHKIDNYLKLLKCRIIHNNNC
modifications: tracer form iodinated (125I, Iodogen method); unlabeled hPRL used as competitor
notes: Recombinant hPRL from bacteria; also called WT hPRL; [125I]-hPRL
fold stimulation of LHRE-luciferase activity induced by PRL (stable HEK 293 clones, 1 ug/ml PRL) [1]: 8 fold
fold induction of LHRE-luciferase activity by PRL (transient transfection, HEK 293) [2]: 5 fold
Kd [3]: 640 pM
Kd [4]: 440 pM
